# Laboratory results taken from PMC6668441, “Comparative Study of Subcutaneous and Orthotopic Mouse Models of Prostate Cancer: Vascular Perfusion, Vasculature Density, Hypoxic Burden and BB2r-Targeting Efficacy” (Scientific Reports, 2019).
# Columns and labels:
# [1] = test system: orthotopic PC-3 xenografts; assay: Biodistribution, BB2r-targeted uptake, orthotopic PC-3 xenograft model
# Method: (§1) For the subcutaneous model, 5-week old female SCID mice were inoculated in the flanks with 5 × 10^6 PC-3 cells (American Type Culture Collection (ATCC), VA) in Matrigel®. The tumor size was monitored by caliper. For the generation of the orthotopic model, the PC-3-Luc cells were selected by 0.5 µg/mL puromycin twice before inoculation. The male 6-weeks SCID mice were anesthetized, the muscles of the abdomen area were cut after retracting the skin, and the prostate gland exposed. 50 μL of PC-3-Luc cell suspension at 0.5 × 10^6/mL in Matrigel® was injected into a dorsal prostatic lobe. The wound was closed in two layers and the skin was clipped. Animals were given analgesic drugs for 3 days and the tumors were monitored by an IVIS optical imaging system.
# (§2) The mice were injected, monitored and dissected in the lab with the temperature of 23 °C and 17% relative humidity. All animals were awake until sacrifice. The body weight, tumor volume and tumor luminescence of the mice were recorded every three days. At four-to-seven weeks post-xenograft implantation, the mice were divided into three groups by tumor volume: <300, 300–700 and >700 mm^3 in both animal models. […] Each mouse (average weight: 20 g for female mice and 25 g for male mice) was treated with pimonidazole solution (80 mg/kg in PBS) via intraperitoneal injection. […] After an additional 1 h, the mice were injected intravenously with a PBS solution containing 10 µCi (370 kBq) of [^99mTc]NaTcO4 and 15 mg/kg Hoechst 33342. The animals were sacrificed 5 minutes later, and their tissues collected. The excised tissues were weighed, the radioactivity for each tissue was measured by γ-counter and the percentage injected dose per gram (%ID/g) was calculated for each tissue. […]
# (§3) Establishment of Stably Transfected PC-3-Luc Cells
# (§4) To generate the PC-3-Luc cells, we utilized pre-made lentivirus particles encoding luciferase and GFP (EF1a-Luciferase (firefly)-2A-GFP (Puro), AMSBIO) for transfection. Briefly, normal PC-3 cells were seeded in a 24-well plate using 0.5 mL of medium containing 0.5 × 10^5 cells/mL and incubated overnight. The medium was removed and replaced with 0.5 mL of fresh medium pre-mixed with 2.5 ȝL TransduxTM. To each well was added 2 ȝL of the lentivirus particle solution and swirled to mix. The plate was returned to the incubator and cultured for 3 days. Once the cells grew to confluence, they were harvested and transferred to larger plates (from 6-well plates to 60 mm dishes). 1.5 mL of suspended cells in PBS at a concentration of 5 × 10^6/mL was sorted by the FACS method to give the GFP positive (PC-3-Luc) cells that were returned to culture for in vitro and in vivo studies.
# (§5) The normal PC-3 cells and PC-3-Luc were cultured in our laboratory, as per ATCC protocols, in Ham’s F-12K medium containing 10% FBS, 2.5 mM L-glutamine, 15 mM HEPES and 0.5 mM sodium pyruvate. Cells were incubated at 37 °C […]
# (§6) All animal experiments were performed in accordance with the NIH animal use guideline and protocol approved by the […]
# [2] = as above; conditions: male, NOD SCID, mouse, iv, total radioactivity, orthotopic model, 10 µCi i.v., 1 h 5 min p.i., mean ± SD; for dose excreted at 65 min: urine and faeces, excretion (urine and fecal material)
# Method: as §1, §2, §3, §4, §5, §6
structure (smiles),measurement,setting,value
"CSCC[C@H](NC(=O)[C@H](CC(C)C)NC(=O)[C@H](Cc1c[nH]cn1)NC(=O)CNC(=O)[C@@H](NC(=O)[C@H](C)NC(=O)[C@H](Cc1c[nH]c2ccccc12)NC(=O)[C@H](CCC(N)=O)NC(=O)CCOCCOCCOCCOCCNC(=O)[C@@H](CO)NC(=O)[C@@H](CO)NC(=O)[C@@H](CO)NC(=O)[C@@H](CO)NC(=O)[C@@H](CO)NC(=O)CN1CCN(CC(=O)O)CCN(CC(=O)O)CCN(CC(=O)O)CC1)C(C)C)C(N)=O [[^177Lu]Lu-DOTA-SP714, metal not drawn]",blood retention values between the two models,[1]; orthotopic versus subcutaneous,not statistically different
same,"average tumor uptake, orthotopic versus subcutaneous model","[1]; tumor volume 300–700 mm^3, p = 0.011",1.6 fold
same,"average tumor uptake, orthotopic versus subcutaneous model","[1]; tumor volume <300 mm^3, p = 0.0055",1.9 fold
same,"average tumor uptake, orthotopic versus subcutaneous model","[1]; tumor volume >700 mm^3, p = 0.34",1.2 fold
same,tissue uptake at 65 min,"[2]; blood, 10 uCi, blood uptake, tumor volume 300-700 mm^3",0.33 ± 0.14 %ID/g
same,tissue uptake at 65 min,"[2]; blood, 10 uCi, blood uptake, tumor volume <300 mm^3",0.27 ± 0.19 %ID/g
same,tissue uptake at 65 min,"[2]; blood, 10 uCi, blood uptake, tumor volume >700 mm^3",0.57 ± 0.12 %ID/g
same,tissue uptake at 65 min,"[2]; bone, 10 uCi (370 kBq), bone uptake, tumor volume 300-700 mm^3",0.46 ± 0.22 %ID/g
same,tissue uptake at 65 min,"[2]; bone, 10 uCi (370 kBq), bone uptake, tumor volume <300 mm^3",0.29 ± 0.22 %ID/g
same,tissue uptake at 65 min,"[2]; bone, 10 uCi (370 kBq), bone uptake, tumor volume >700 mm^3",0.53 ± 0.24 %ID/g
same,tissue uptake at 65 min,"[2]; brain, 10 uCi (370 kBq), brain uptake, tumor volume 300-700 mm^3",0.06 ± 0.03 %ID/g
same,tissue uptake at 65 min,"[2]; brain, 10 uCi (370 kBq), brain uptake, tumor volume <300 mm^3",0.03 ± 0.01 %ID/g
same,tissue uptake at 65 min,"[2]; brain, 10 uCi (370 kBq), brain uptake, tumor volume >700 mm^3",0.06 ± 0.02 %ID/g
same,tissue uptake at 65 min,"[2]; heart, 10 uCi (370 kBq), heart uptake, tumor volume 300-700 mm^3",0.39 ± 0.49 %ID/g
same,tissue uptake at 65 min,"[2]; heart, 10 uCi (370 kBq), heart uptake, tumor volume <300 mm^3",0.13 ± 0.09 %ID/g
same,tissue uptake at 65 min,"[2]; heart, 10 uCi (370 kBq), heart uptake, tumor volume >700 mm^3",0.3 ± 0.17 %ID/g
same,tissue uptake at 65 min,"[2]; kidney, 10 uCi (370 kBq), kidney uptake, tumor volume 300-700 mm^3",4.8 ± 4.92 %ID/g
same,tissue uptake at 65 min,"[2]; kidney, 10 uCi (370 kBq), kidney uptake, tumor volume <300 mm^3",3.4 ± 0.92 %ID/g
same,tissue uptake at 65 min,"[2]; kidney, 10 uCi (370 kBq), kidney uptake, tumor volume >700 mm^3",5.98 ± 3.08 %ID/g
same,tissue uptake at 65 min,"[2]; large intestine, 10 uCi (370 kBq), large intestine uptake, tumor volume 300-700 mm^3",4.52 ± 1.31 %ID/g
same,tissue uptake at 65 min,"[2]; large intestine, 10 uCi (370 kBq), large intestine uptake, tumor volume <300 mm^3",2.06 ± 1.02 %ID/g
same,tissue uptake at 65 min,"[2]; large intestine, 10 uCi (370 kBq), large intestine uptake, tumor volume >700 mm^3",4.07 ± 1.91 %ID/g
same,tissue uptake at 65 min,"[2]; liver, 10 uCi (370 kBq), liver uptake, tumor volume 300-700 mm^3",0.4 ± 0.18 %ID/g
same,tissue uptake at 65 min,"[2]; liver, 10 uCi (370 kBq), liver uptake, tumor volume <300 mm^3",0.26 ± 0.07 %ID/g
same,tissue uptake at 65 min,"[2]; liver, 10 uCi (370 kBq), liver uptake, tumor volume >700 mm^3",0.52 ± 0.19 %ID/g
same,tissue uptake at 65 min,"[2]; lung, 10 uCi (370 kBq), lung uptake, tumor volume 300-700 mm^3",0.92 ± 0.41 %ID/g
same,tissue uptake at 65 min,"[2]; lung, 10 uCi (370 kBq), lung uptake, tumor volume <300 mm^3",0.82 ± 0.5 %ID/g
same,tissue uptake at 65 min,"[2]; lung, 10 uCi (370 kBq), lung uptake, tumor volume >700 mm^3",1.28 ± 0.47 %ID/g
same,tissue uptake at 65 min,"[2]; muscle, 10 uCi (370 kBq), muscle uptake, tumor volume 300-700 mm^3",0.22 ± 0.1 %ID/g
same,tissue uptake at 65 min,"[2]; muscle, 10 uCi (370 kBq), muscle uptake, tumor volume <300 mm^3",0.23 ± 0.12 %ID/g
same,tissue uptake at 65 min,"[2]; muscle, 10 uCi (370 kBq), muscle uptake, tumor volume >700 mm^3",0.48 ± 0.34 %ID/g
same,tissue uptake at 65 min,"[2]; pancreas, 10 uCi (370 kBq), pancreas uptake, tumor volume 300-700 mm^3",40.1 ± 11.5 %ID/g
same,tissue uptake at 65 min,"[2]; pancreas, 10 uCi (370 kBq), pancreas uptake, tumor volume <300 mm^3",30 ± 12.5 %ID/g
same,tissue uptake at 65 min,"[2]; pancreas, 10 uCi (370 kBq), pancreas uptake, tumor volume >700 mm^3",37.2 ± 7.29 %ID/g
same,tissue uptake at 65 min,"[2]; small intestine, 10 uCi (370 kBq), small intestine uptake, tumor volume 300-700 mm^3",3.74 ± 1.15 %ID/g
same,tissue uptake at 65 min,"[2]; small intestine, 10 uCi (370 kBq), small intestine uptake, tumor volume <300 mm^3",2.97 ± 0.66 %ID/g
same,tissue uptake at 65 min,"[2]; small intestine, 10 uCi (370 kBq), small intestine uptake, tumor volume >700 mm^3",3.8 ± 1.46 %ID/g
same,tissue uptake at 65 min,"[2]; spleen, 10 uCi (370 kBq), spleen uptake, tumor volume 300-700 mm^3",2.02 ± 3.14 %ID/g
same,tissue uptake at 65 min,"[2]; spleen, 10 uCi (370 kBq), spleen uptake, tumor volume <300 mm^3",1.77 ± 1.19 %ID/g
same,tissue uptake at 65 min,"[2]; spleen, 10 uCi (370 kBq), spleen uptake, tumor volume >700 mm^3",2.91 ± 4.89 %ID/g
same,tissue uptake at 65 min,"[2]; stomach, 10 uCi (370 kBq), stomach uptake, tumor volume 300-700 mm^3",1.59 ± 0.9 %ID/g
same,tissue uptake at 65 min,"[2]; stomach, 10 uCi (370 kBq), stomach uptake, tumor volume <300 mm^3",1.07 ± 0.53 %ID/g
same,tissue uptake at 65 min,"[2]; stomach, 10 uCi (370 kBq), stomach uptake, tumor volume >700 mm^3",1.46 ± 0.62 %ID/g
same,tissue uptake at 65 min,"[2]; tumor, 10 uCi, tumor uptake, tumor volume 300-700 mm^3",8.55 ± 2.65 %ID/g
same,tissue uptake at 65 min,"[2]; tumor, 10 uCi, tumor uptake, tumor volume <300 mm^3",8.07 ± 3.23 %ID/g
same,tissue uptake at 65 min,"[2]; tumor, 10 uCi, tumor uptake, tumor volume >700 mm^3",11.1 ± 2.88 %ID/g
same,dose excreted at 65 min,"[2]; 10 uCi, tumor volume 300-700 mm^3",67.2 ± 8.53%
same,dose excreted at 65 min,"[2]; 10 uCi, tumor volume <300 mm^3",60.8 ± 29.3%
same,dose excreted at 65 min,"[2]; 10 uCi, tumor volume >700 mm^3",60.2 ± 10.8%
